The values below come from PMC6380570.

The target of experiment [1] is S100A1 protein (1-93 amino acids).
For experiment [2] the target is unchanged. Description: other fluorescence titration; tryptophan fluorescence of S100A1 (3.50 uM; excitation 295 nm, emission 344 nm); S100A4 added from 0 to 10.50 uM in steps of about 0.70 uM; 0.1 mM EDTA, 8 mM NaCl, 0.34 mM NaN3, 6 mM CaCl2, 16 mM Tris, pH 6.0; linear (double-reciprocal) fit.

The substance “S100A4 (Mts1) protein (from UniProt P26447 4-101) (natural protein)” came in with a WST-1 proliferation assay of SW480 cells (which contain RAGE) treated with the S100A4-S100A1 complex (100 nM), against S100A1 alone; pair said to be blocked: S100A1 and the RAGE V domain in experiment [1] of 1.38 fold. Moreover, in experiment [2], the equilibrium dissociation constant (Kd) (commonly the constant that tells how readily two partners part at equilibrium) is 6.2 µM.
